A protein production outcome set (Wang et al. 2014)

Assay: label from the status in PepcDB records

Sequence | protein production
MESLDSVSIAILLGSVLVMAGILSSLLALRFGAPLLLVFLVIGILAGESGPGGINFNDLGTTYLVGSVALALILFDGGLKTRFSSIKAVLAPSMGLATVGVLLTALVTAPVARYALDLSWVEALLASAVVASTDAAAVFLLVHAQGLRLRPRVGATLEVESGTNDPFAVFLTLMLVELITRGESSILHVLIEFVREAALGAVIGVVGGRVVVMALNRVALPQGLHAPFVTTAALVVFGAAQMSHASGFLAVYLAGMIIGNQPTRAHNSVVAFLDAATWLAQIVMFVLLGLLVSPQRLMGSIGPAVVIALALMLVARPLAVFICLAPFRFNWRERLFIAWVGLRGAVAIFLASIPMLVGLSKAYLYFDVAFVVVLISLMLQGWTLAPAARKLLVALPRSDRGPRRIELDLPGQLEQQLVGYAVRPKSLYLKRGLIPSWSKPTLVIRDQRILTPEEAEPVAPGDYVYLLAPPEKAAALDRFFVDMPPSTAPDPHLLGDFIVPGETSLGDLAAAYGISVPPGQEALTLADYFDIYLDQAPMVGATLPLDSIVLVARSLGGGRVNVVGLRLPEEEDEAPPPTRLAKVRTKLSEVWSLLAGV | failed
MESMSMNHRVVRHCHNKKLQQSRYSPYSKENIISTIEKEMQKDEAIRLGVELSLFVAETMVLLSDNLRSMLLFCLWVLTNAECTYFTDPVVGRLHCVMLYVLETYIKPKNGVYLADVKSNQWEVFVKSCKSFVFGIRELDRIVLILGKRESSSCEVVKTSDFEHCNQELKKLEETLRSAKDVSEANGFAREVIKSNILCLWKSLFETSQPKVINLKNRTLDMFKPLLNQAREITCSSLIASLHI | failed
MESSEEDDEYPFIESITPQSKIDSVHQSLTEKGIRKLCCELMDLKDAVENMCGDMRTKYLAFLRISEEAVEMEHELVELRKHISSQGILVQDLMAGVCREMDDWNRLPGDVHDAEVEEDPLPNEVTDPKSEFLEKIDLLLAEHKVDEALEAMDAEERSSPDLKGSVEMSSYKSAFMERKAVLEDQLLRIAKQPSICVAELKHALIGLIRLGKGPSAHQLLLKFYATSLRRRIEAFLPSCLTCPNTFPATLSKLVFSNISVATKESAAMFGDDDNPAYSNKVVQWAEREVEYLVRLVKENASPSETASALRAASICLQDCLNYCKVLEPQGLFLSKLFLVLFRPYVEEVLELNFRRARRVIFDLNETDEGLESPSDFVTILSEFAIASDTMMTDCSIRFMQIVQDILEQLTHLVVLHFGESVLTRILQLYDKYIDFLIKALPGHSDEDGLPELQDNTVLARAETDSEQLALLGAAFTILDELLPRSLVKVWKLQIENGGGEGENSAALNSSAAPELKEWKRHMVQAFDKLRNYFCLQFVLSFIYSREGLTRLDALIYLTETPDDLHLPSLPFQALFSKLQQLAIIAGDVLLGKEKLQKILLARLTETVIIWLSNEQEFWSAFEDESNPLQPSGLQQLILDMNFTVEIARFAGYPFKVVQNHASVVINRAINIFSERGINPQSSLPKTEWFTEAAKSAINRLLMGSEDASEPEEYECEEEEEDDHHIVLPEMDDDSDSEDTSSLSTVDSFESFASASMADLESPSFTDSES | failed
MESSPLISAGLPIALFIIMIGIGMTLTLRDFRQVAVYPKGMIVGTFAQILLMPVVAFGLAWLFGVSPAIAVGLVIIAACPGGTTSNLFVLLARGNIALSIVLTVSASLITILTLPLFTNMALQHFMGTEESISLPVGKTIAMLVVIVLLPVAIGMLVRTRKPELARKAESLVSIFGGIVLAVLVVALLYGVRDQMWDLLKQAGPSTIALNVAGIALGLLAGRVAGLTQRESLAVAVELGVKNGTIGLMVTLTLLESSTMSIPAAVYGVLMFPIGFLLAMYGRKVIPKSNVAHAAGEA | failed
MESVAFIQWCLEHLNYWTITLLMTIESSFIPFPSEVIIPPAAYKAAVNDELNIYLVVLFATIGADIGALINYYLAKWLGRPIIYKFANSRIGHMCLIDEAKVQHAESYFDKHGALSTFIGRLIPAVRQLISIPAGLARMKMHTFLLYTTIGAGLWNTILAVIGYYLSTVPGIESEEQLIAKVTEYSHEIGYCFIAIGIFIVGFLVYKGMKKK | failed
MESVTFEDVAVEFIQEWALLDSARRSLCKYRMLDQCRTLASRGTPPCKPSCVSQLGQRAEPKATERGILRATGVAWESQLKPEELPSMQDLLEEASSRDMQMGPGLFLRMQLVPSIEERETPLTREDRPALQEPPWSLGCTLPLLSLLLPSCPEPPLVLLDSSSAPDRHLGSTLDTEARGIP | failed
METAITRMLGIRYPIVAAPMFLVSNAPLLQAVAEAGGIGVIPSLNFRTHQAFREFLESFPEGVPFGVNLILKGNPRLEEDLEAVVERRVPLVVTSLGDPTRVVERVKAYGGVVWCDVVGLRHGRKAVEAGADALVAVACGAGGHAGRVSPFVLGPWLREELGVPVLIAGGIATGRQVLAALALGDGVYIGTRFIATLESGAPLEYKEALLRAQPEDIEYTPEVTGVPANFLRESLERFRQGGGKAWKEVYSAGHGVAFIREIPSAKEVVARLVEEYRAAKAGLP | failed
METALVSIIMPMYNAGKFLSKSIESVLEQTYQNWELLLIDDGSKDDSIDIALAFMEKDSRIFLLKNEQNMGIAKTRNKGIEASKGQYIAFLDSDDLWLPNKLEVQVKWMEEKKLLFTCSSYFVCNENGNITHERNFSEGPQTYQDLLKTNTIGCLTVVVESNLLKRHLMPDLKHEDYATWLNILKEINTVYFINEKLAIYRKLTTSTSSNKWNTISWVWKILRQNEQFSVIKSSFYLMRFLFYTTFKYAKNELEHHHHHH | not failed
METIKIGVVGLGTVGTGVVKMLQAHQEKISEITGRKLELACVVVHNLKKHEQVDLGDVQMTDQIATLLDDPSIQIMVEVMGSIHPAKEYITQALQAGKHVVTANKDLIAQYGRELVQIARENHRDLFYEASVAGGIPILRTIDNSFAADRIQRVMGIVNGTTNYIMTQMLTKHWSYDQALSSAQDLGFAESDPTNDVEGLDAAFKMIILTQFAFGMSLSLDHVQVQGITKISPEDIAEAHQLGYTIKLLGIAEEIDDRIAVSVGPVLVSDQHPLATVQNENNAVMVTGTAVGNTMFYGPGAGELPTANSVLSDITTVAKNIALNTTGNTFNSYRQETVLATPEDVVYPHFIALKMRDVPGMMMKLTAIMTRAEVSFSRIIQNQLGDGNARVVIITHAMNDQQLADITREIGEQENMQLLASYKVLKNA | failed
METKTVAITMGDPAGIGPEIIVKALSEDGLNGAPLVVIGCLATLKRLQAKGITPNVELRAIERVAEARFAPGIIHVIDEPLAQPEALEAGKVQAQAGDLAYRCVKRATELALRGDVQAIATAPLNKEALHLAGHNYPGHTELLATLTHSRDYAMVLYTDKLKVIHVSTHIALRKFLDTLSTARVETVIGIADTFLKRVGYVKPRIAVAGVNPHAGENGLFGDEETRILTPAITDARAKGMDVYGPCPPDTVFLQAYEGQYDMVVAMYHDQGHIPLKLLGFYDGVNITAGLPFIRTSADHGTAFDIAWTGKAKSESMAVSIKLAMQLA | not failed
METLNDIKKILINVGLYQGFDLTDPKVSEEVNHETANMKWIKDYTSDGNWDNEFKEDLKNFLDYMEVCQLALNDKNFKIASNSLFMAMIYAGNLSLIFDSIKTDISTLLSAEYKKNSFSWPSLDE | not failed
METLRVSSKSRPNSVAGAIAALLRTKGEVEVQAIGPQAVNQAVKAIAIARGYIAPDNLDLVVKPAFVKLELENEERTALKFSIKAHPLET | not failed
METQKTQAENPPKPATSSCRKKTKDDANFLEDVKDHIDDFINASMDDHKNCFNKTIKKMFGLSKAVADKQQSEAKGGVESYLPLQTTVSD | failed
METSMRYTSNSKSMKIHAKEKVPVNSKTHLQLHGELDTGTGAPSYFCAMIRHFFPEASTGLGVGLHYDKRQKLRCLVRGKKEFPVRADKRVTFNIKGRCDIDQDLNQKNPKGAAEFAWNIMDFKEDQDVRIKVGYEMFDKVPYMQIRENNWTLNANMKGKWNLRYDL | failed
MEVFLMIRRKKTTIFAEAQESSTVLELKRIVQGILKRPPEEQLLFKDDQLLDESKTLRDCGFTSQIAKAQDPATVALVFREDASEGVQIHPYSTPLLPSVMKTGTDSLSDEIKSGLDSLSDEIKSGLDSVWCIKPEAAAGMEVFLMIRRKKTTIFAEAQESSTVLELKRIVQGFLKKPPKDQLLFKDNQLLEERKTLRDCGITGRIAKPEDPAILTLEFREDAFQLLHASPFSCPLIGGVLKNGLDFKRD | failed
MEVGMIPRVYLGHEWFGAERILSEYQVPEDCGAQVLFLGIPRNAPEDGGNIEALEYEAYPEMAIKEMEKIRQETIEKFGVKEVFIHHRLGLVKIGEPSFLVLAVGGHREETFKACRYAVDETKKRVPIWKKEIFKEGKGEWVLGEKKNASGQTK | not failed
